Measured values from US20240116985A1 (published 2024).
Each block holds one binder with its values, some of them ahead of it. Starred links: 1 amine or outer side, 2 acyl side, 3 side chain; linkers in the order of their positions; H or OH if unused. Positions of bridges follow the written chain, without caps; N, C: chain ends. Non-standard residues stand in square brackets, D forms with d. Primed or numbered codes have the meaning given here. *: point of attachment. B5(10) = 2-amino-2-(pent-4-en-1-yl)hept-6-enoic acid, bis(4-pentenyl)glycine, stitching residue bearing both staples, C=CCCCC(CCCC=C)(N[*:1])C(=O)[*:2]; PyrS2(3) = (S)-3-amino-1-((pent-4-en-1-yloxy)carbonyl)pyrrolidine-3-carboxylic acid, stapling residue, C=CCCCOC(=O)N1CC[C@@](N[*:1])(C(=O)[*:2])C1; PyrS2″ = (S)-3-amino-1-((pent-4-en-1-yloxy)carbonyl)pyrrolidine-3-carboxylic acid (stapling residue), C=CCCCOC(=O)N1CC[C@@](N[*:1])(C(=O)[*:2])C1; B5(16) = 2-amino-2-(pent-4-en-1-yl)hept-6-enoic acid = 2,2-bis(4-pentenyl)glycine (stitching residue), C=CCCCC(CCCC=C)(N[*:1])C(=O)[*:2]; B5(4) = 2,2-bis(4-pentenyl)glycine = 2-amino-2-(pent-4-en-1-yl)hept-6-enoic acid (stitching residue), C=CCCCC(CCCC=C)(N[*:1])C(=O)[*:2]; TfeGA = (S)-2-amino-3-((carboxymethyl)(2,2,2-trifluoroethyl)amino)propanoic acid, O=C([C@H](CN(CC(=O)[*:3])CC(F)(F)F)N[*:1])[*:2]; PyrS2 = (S)-3-amino-1-((pent-4-en-1-yloxy)carbonyl)pyrrolidine-3-carboxylic acid, C=CCCCOC(=O)N1CC[C@@](N[*:1])(C(=O)[*:2])C1; B5(3) = 2,2-bis(4-pentenyl)glycine (stitching residue), C=CCCCC(CCCC=C)(N[*:1])C(=O)[*:2]; Phe(3-COOH) = N[C@@H](Cc1cccc(C(=O)O)c1)C(=O)O; Phe(2-CF3) = N[C@@H](Cc1ccccc1C(F)(F)F)C(=O)O; Phe(2-Cl) = N[C@@H](Cc1ccccc1Cl)C(=O)O; Bta = N[C@@H](Cc1csc2ccccc12)C(=O)O; αAllylPro = C=CC[C@@]1(C(=O)O)CCCN1; tBuAla = CC(C)(C)C[C@H](N)C(=O)O; 3Thi = N[C@@H](Cc1ccsc1)C(=O)O; Cha = N[C@@H](CC1CCCCC1)C(=O)O; S8 = C=CCCCCCC[C@](C)(N)C(=O)O; R5 = C=CCCC[C@@](C)(N)C(=O)O; PyrS2(4) = not defined here; Leu(ol) = CC(C)C[C@H](N)CO; hSer = N[C@@H](CCO)C(=O)O; Alaol = C[C@@H](CO)N*

What was measured:
B-cat-Halo [1] = molecular target: T1, B-cat-Halo (UniProt P35222 1-781); assay: cell-based or functional assay
T1 sequence (looked up): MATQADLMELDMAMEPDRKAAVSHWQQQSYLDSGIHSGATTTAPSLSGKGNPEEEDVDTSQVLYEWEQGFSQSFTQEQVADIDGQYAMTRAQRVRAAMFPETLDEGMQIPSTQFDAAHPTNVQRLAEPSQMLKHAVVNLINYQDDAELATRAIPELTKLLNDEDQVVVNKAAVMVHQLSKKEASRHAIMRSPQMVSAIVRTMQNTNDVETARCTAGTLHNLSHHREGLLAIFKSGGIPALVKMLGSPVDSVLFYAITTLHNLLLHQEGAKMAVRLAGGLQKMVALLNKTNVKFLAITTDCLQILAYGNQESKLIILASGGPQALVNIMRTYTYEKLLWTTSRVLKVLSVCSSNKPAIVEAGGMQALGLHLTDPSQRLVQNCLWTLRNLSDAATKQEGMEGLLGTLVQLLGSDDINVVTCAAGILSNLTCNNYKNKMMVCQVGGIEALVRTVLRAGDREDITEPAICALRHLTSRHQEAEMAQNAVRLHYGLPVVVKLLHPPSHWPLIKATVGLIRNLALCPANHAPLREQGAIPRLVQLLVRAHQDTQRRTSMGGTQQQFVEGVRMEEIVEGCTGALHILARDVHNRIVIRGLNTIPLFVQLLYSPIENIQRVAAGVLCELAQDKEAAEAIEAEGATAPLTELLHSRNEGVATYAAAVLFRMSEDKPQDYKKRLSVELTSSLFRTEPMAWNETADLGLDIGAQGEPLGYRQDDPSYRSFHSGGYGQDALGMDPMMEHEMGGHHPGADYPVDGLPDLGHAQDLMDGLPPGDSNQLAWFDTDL

[2] = molecular target: T2, beta-catenin in DLD1 TCF/LEF luciferase reporter cells (UniProt P35222 1-781); assay: cell-based or functional assay
T2 sequence (looked up): T1 sequence (looked up)

[3] = molecular target: T3, B-cat-Halo (beta-catenin HaloTag construct transfected into HEK293 cells) (UniProt P35222 1-781); assay: cell-based or functional assay
T3 sequence (looked up): T1 sequence (looked up)

[4] = molecular target: T4, beta-catenin in DLD1 TCF/LEF luciferase reporter cells (UniProt P35222 1-781); assay: cell-based or functional assay; remark: listed apart in the source
T4 sequence (looked up): T1 sequence (looked up)

B-cat-Halo [5] = molecular target: T5, B-cat-Halo (UniProt P35222 1-781); assay: cell-based or functional assay; remark: listed apart in the source
T5 sequence (looked up): T1 sequence (looked up)

[6] = molecular target: T6, beta-catenin in DLD1 TCF/LEF luciferase reporter cells (UniProt P35222 1-781); assay: cell-based or functional assay; remark: listed apart in the source
T6 sequence (looked up): T1 sequence (looked up)

[7] = molecular target: T7, full-length beta-Catenin (Uniprot ID P35222) (Homo sapiens (Human), UniProt P35222 2-781); assay: fluorescence polarization competition, displacement of 5FAM-TCF4 10-53 from full-length beta-catenin
T7 construct: also called bCat; B-Catenin
T7 sequence: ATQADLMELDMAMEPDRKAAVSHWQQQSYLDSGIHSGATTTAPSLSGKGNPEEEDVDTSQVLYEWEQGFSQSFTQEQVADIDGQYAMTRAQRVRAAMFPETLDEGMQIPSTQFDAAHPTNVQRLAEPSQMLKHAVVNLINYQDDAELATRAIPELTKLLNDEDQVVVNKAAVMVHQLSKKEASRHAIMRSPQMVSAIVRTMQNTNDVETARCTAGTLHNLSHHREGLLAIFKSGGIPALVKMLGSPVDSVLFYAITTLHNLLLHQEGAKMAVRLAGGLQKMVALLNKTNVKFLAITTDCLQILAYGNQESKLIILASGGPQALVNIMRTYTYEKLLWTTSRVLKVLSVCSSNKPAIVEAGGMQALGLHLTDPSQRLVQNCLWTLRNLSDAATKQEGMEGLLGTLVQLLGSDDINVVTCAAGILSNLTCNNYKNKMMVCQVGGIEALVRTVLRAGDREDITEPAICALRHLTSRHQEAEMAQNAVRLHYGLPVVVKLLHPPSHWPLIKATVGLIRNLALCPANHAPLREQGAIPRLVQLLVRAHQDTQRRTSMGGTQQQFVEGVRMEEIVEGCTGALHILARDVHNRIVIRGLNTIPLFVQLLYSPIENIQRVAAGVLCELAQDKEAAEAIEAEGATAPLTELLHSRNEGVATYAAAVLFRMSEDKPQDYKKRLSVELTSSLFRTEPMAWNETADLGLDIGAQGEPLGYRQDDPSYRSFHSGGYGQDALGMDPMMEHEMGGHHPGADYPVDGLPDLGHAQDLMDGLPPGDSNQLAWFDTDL
Description: (§1) The plate was incubated protected from light for 60 minutes at 20° C. prior to read. Reads were performed on a CLARIOstar plate reader (BMG Labtech) in duplicate, and data were fitted to a 1:1 binding model with hill slope using an in-house script. All provided concentrations are final concentrations.

[8] = molecular target: T8, B-cat-Halo (beta-catenin HaloTag NanoBRET construct expressed in HEK293 cells) (UniProt P35222 2-781); assay: cell-based or functional assay
T8 sequence (looked up): T7 sequence

[9] = molecular target: T9, beta-catenin in DLD1 TCF/LEF luciferase reporter cells (UniProt P35222 2-781); assay: cell-based or functional assay
T9 sequence (looked up): T7 sequence

[10] = molecular target: T10, beta-catenin in DLD1 TCF/LEF luciferase reporter cells (UniProt P35222 1-781); assay: cell-based or functional assay; remark: listed apart in the source
T10 sequence (looked up): T1 sequence (looked up)

[11] = molecular target: T11, full-length beta-Catenin (Uniprot ID P35222) (Homo sapiens (Human), UniProt P35222 1-781); assay: fluorescence polarization competition against 5FAM-TCF4(10-53) on full-length beta-catenin
T11 construct: also called bCat
T11 sequence: T1 sequence (looked up)
Description: as §1

Bcat-Halo = molecular target: T12, Bcat-Halo (UniProt P35222 1-781); assay: NanoBRET Abs IC50 in HEK293 cells; Bcat-Halo, competitor TCF4-Luc
T12 construct: also called beta-catenin HaloTag fusion; not shown: HaloTag
T12 sequence (looked up): T1 sequence (looked up)

[12] = molecular target: T13, full-length beta-Catenin (Uniprot ID P35222) (Homo sapiens (Human), UniProt P35222 1-781); assay: fluorescence polarization competition; full-length beta-catenin, competitor 5FAM-TCF4(10-53) probe
T13 construct: also called bCat; B-Catenin
T13 sequence: T1 sequence (looked up)
Procedure, shortened: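 Readings followed a light-protected 60-minute incubation at 20° C. Each read was done in duplicate. Curves were fit with a 1:1 binding model including hill slope, and stated concentrations are final.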

- NanoBRET Abs IC50 (B-cat-Halo [1]): 11.3 µM
- DLD1 4% Abs IC50 [2]: 3.6 µM
B1: I-996 (peptide)
peptide: Ac-[αAllylPro]D[tBuAla][B5(3)]D[TfeGA]AAF[hSer][S8][Phe(2-Cl)][Bta]Q-NH2
modifications: staple 1-4, 4-11

- NanoBRET Abs IC50 [3]: 4 µM
- DLD1 4% Abs IC50 [4]: 6.5 µM
B2: I-1918 (peptide)
peptide: Ac-[αAllylPro]D[tBuAla][B5(4)]D[Phe(3-COOH)]QAFL[PyrS2(4)][3Thi][Bta]A-NH2
modifications: staple 1-4, 4-11; not fully specified; printed as Ac-PL3-Asp-Npg-B5-Asp-3COOHF-Gln-Ala-Phe-Leu-PyrS2-3Thi-BztA-Ala-NH2; reading uncertain

- NanoBRET Abs IC50 (B-cat-Halo [5]): 4.8 µM
- DLD1 4% Abs IC50 [6]: 3.9 µM
B3: I-1318 (peptide)
peptide: Ac-[αAllylPro]D[tBuAla][B5(4)]DDAAFL[PyrS2″][Phe(2-CF3)][Bta]Q-NH2
modifications: staple 1-4, 4-11

- IC50 [7]: 0.176 µM
B4: I-1184 (peptide)
peptide: Ac-PD[Cha][R5]DDAAFT[PyrS2(3)][Phe(2-Cl)][Bta]S-NH2
modifications: staple 4-11
notes: Stapled peptide, one staple

- NanoBRET Abs IC50 [8]: > 20 µM
- DLD1 4% Abs IC50 [9]: 10.4 µM
B5: I-1080 (peptide)
peptide: Ac-[αAllylPro]D[tBuAla][B5(4)]DDAAFN[PyrS2″][Phe(2-Cl)][Bta][Leu(ol)]
modifications: staple 1-4, 4-11

- NanoBRET Abs IC50 [8]: 16.7 µM
- DLD1 4% Abs IC50 [9]: 10.6 µM
B6: I-1081 (peptide)
peptide: Ac-[αAllylPro]D[tBuAla][B5(3)]DDAAFN[PyrS2″][Phe(2-Cl)][Bta]-Alaol
modifications: staple 1-4, 4-11

- DLD1 4% Abs IC50 [10]: 3.4 µM
B7: I-1684 (peptide)
peptide: Ac-[αAllylPro]D[tBuAla][B5(16)]D[Phe(3-COOH)]GAFL[PyrS2(4)][Phe(2-Cl)][Bta]Q-NH2
modifications: staple 1-4, 4-11; not fully specified; printed as Ac-PL3-Asp-Npg-B5-Asp-3COOHF-Gly-Ala-Phe-Leu-PyrS2-2C1F-BztA-Gln-NH2; reading uncertain

- IC50 [11]: 10 µM
B8: I-1287 (peptide)
peptide: Ac-[αAllylPro]NA[B5(10)]DTAAFL[PyrS2]F[Bta]Q-NH2
modifications: staple 1-4, 4-11; not fully specified; printed as Ac-PL3-Asn-Ala-B5-Asp-Thr-Ala-Ala-Phe-Leu-PyrS2-Phe-BztA-Gln-NH2
notes: Stapled peptide

- IC50 (Bcat-Halo): 15 µM
B9: I-654 (peptide)
peptide: Ac-[αAllylPro]DI[B5(16)]DEQAFQ[S8]F[Bta]Q-NH2
modifications: staple 1-4, 4-11
notes: Stapled peptide

- IC50 (Bcat-Halo): 16.1 µM
- IC50 [12]: 0.026 µM
B10: I-662 (peptide)
peptide: XDIXDEASFQXFXQ
modifications: not fully specified; Ac-PL3-Asp-Ile-B5-Asp-Glu-Ala-Ser-Phe-Gln-S8-Phe-BztA-Gln-NH2; N-terminal acetyl, C-terminal amide; PL3(1), B5(4), S8(11) stapled by olefin metathesis (1-4 and 4-11); BztA at 13
notes: Stapled peptide
